Data on 2 variants can be found in IntAct's records for PubMed 11698381.

To fix the notation:
B1: pH-response regulator protein palA/RIM20 (Saccharomyces cerevisiae), Q12033 (parent)
chain: MSELLAIPLKRTLEVDFATELSKLIDTTSFQTASFFQSDILKVVDARNNAIAPDISIDGLSALKEYYVILLQLEKKFPNNQIEFTWFQTLSQKSRGTSQYSLQWEKLTIIYNIGCMYSLLALNSNNDAAESLKTSCLYFQNAAGCFKHVLDHQKNLETIPVVDDATLNALTSLMLAQAQECFWFKAVQDKHKDSLIAKLSQQIVDFYCEAINDAQRGKLIRSDWINHLKAKKAYFSAVTYYRIALSFNEKKQFGNVVKALQMGLQFINESTLSSQAKFKTVVESSLKEAQRDNEFIYLQEVPSELPSIKPALMVKPSSSATLLPSIKKDETLFKDLIPIEVMEYCTAYNERQDEYVEQRVTNPLASLNKLLKESLTTFQIPQGLTKVSEAELSHYQASLNNLLINNKNVQVQLDNIEQILNEEAFTDNQLRLKHGTLNWTLPESSTTNTAYYEKLKKLRGYLDEGSAIDKQTNELFQSIDKNLIGSEIRLPESNDPLTNKIKMIIQERNDYIDRTRRKSSEYRILPKIITSYKKNGTVDFEPIFIGHLKYFDEDLRYVNSTKEENIKLIEEVNLSKKNNPGRSGIEPKKMVRIDPRELYIEDLRYSFKLLDEVKENLSAGTAFYENLITSTSNLYNEVQEYDTARRAEKARLDKSLTFEDQ

In this experiment the parent is B1. To be noted: with pacc_yeast RIM101, P33400.
Sequence of pacc_yeast RIM101, P33400 (P33400 whole entry): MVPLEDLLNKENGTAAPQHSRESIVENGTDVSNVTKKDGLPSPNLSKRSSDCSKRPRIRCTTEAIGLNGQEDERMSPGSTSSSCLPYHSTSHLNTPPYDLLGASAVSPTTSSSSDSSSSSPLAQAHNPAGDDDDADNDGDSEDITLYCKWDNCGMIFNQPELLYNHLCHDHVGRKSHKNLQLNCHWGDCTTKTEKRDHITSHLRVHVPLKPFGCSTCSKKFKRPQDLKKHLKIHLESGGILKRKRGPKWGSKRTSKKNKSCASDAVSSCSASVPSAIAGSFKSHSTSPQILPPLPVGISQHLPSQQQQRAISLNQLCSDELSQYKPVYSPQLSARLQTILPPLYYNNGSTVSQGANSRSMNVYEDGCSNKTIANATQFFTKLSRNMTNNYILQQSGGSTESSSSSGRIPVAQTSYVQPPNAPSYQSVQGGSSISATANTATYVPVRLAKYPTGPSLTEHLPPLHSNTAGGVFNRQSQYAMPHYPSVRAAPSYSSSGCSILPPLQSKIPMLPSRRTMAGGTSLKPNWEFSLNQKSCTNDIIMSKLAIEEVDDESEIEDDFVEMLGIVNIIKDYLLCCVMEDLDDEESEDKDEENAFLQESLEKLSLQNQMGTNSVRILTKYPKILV
For F623A;Y624A, the “effect of a mutation on the interaction” value was “disrupting interaction”.

For Q177A;Q179A;E180A, the “effect of a mutation on the interaction” value is listed as “disrupting interaction”.
